Measured values published in paper PMC10761851, “Asymmetric α-benzylation of cyclic ketones enabled by concurrent chemical aldol condensation and biocatalytic reduction” (Nature Communications, 2024).
Changes are numbered by the printed parent chain. Numbers in names are those of the source.

B1: YqjM (Bacillus subtilis subsp. subtilis str. 168) (protein)
chain: ARKLFTPITIKDMTLKNRIVMSPMCMYSSHEKDGKLTPFHMAHYISRAIGQVGLIIVEASAVNPQGRITDQDLGIWSDEHIEGFAKLTEQVKEQGSKIGIQLAHAGRKAELEGDIFAPSAIAFDEQSATPVEMSAEKVKETVQEFKQAAARAKEAGFDVIEIHAAHGYLIHEFLSPLSNHRTDEYGGSPENRYRFLREIIDEVKQVWDGPLFVRVSASDYTDKGLDIADHIGFAKWMKEQGVDLIDCSSGALVHADINVFPGYQVSFAEKIREQADMATGAVGMITDGSMAEEILQNGRADLIFIGRELLRDPFFARTAAKQLNTEIPAPVQYERGW
notes: ene-reductase, FMN enzyme
B2: YqjM (Bacillus subtilis subsp. subtilis str. 168; C26A/I69Y) (protein)
chain: B1 chain with C25A, I68Y
notes: ene-reductase, FMN enzyme
B3: YqjM (Bacillus subtilis subsp. subtilis str. 168; C26G/I69Y) (protein)
chain: B1 chain with C25G, I68Y
notes: ene-reductase, FMN enzyme
B4: YqjM (Bacillus subtilis subsp. subtilis str. 168; C26G/I69Y/Y28F) (protein)
chain: B1 chain with C25G, Y27F, I68Y
notes: ene-reductase, FMN enzyme
B5: YqjM (Bacillus subtilis subsp. subtilis str. 168; I69G) (protein)
chain: B1 chain with I68G
notes: ene-reductase, FMN enzyme
B6: YqjM (Bacillus subtilis subsp. subtilis str. 168; C26G/I69Y/Y169F) (protein)
chain: B1 chain with C25G, I68Y, Y168F
notes: ene-reductase, FMN enzyme
B7: YqjM (Bacillus subtilis subsp. subtilis str. 168; I69Y) (protein)
chain: B1 chain with I68Y
notes: ene-reductase, FMN enzyme

Key:
purified protein [1] = substrate: O=C1CCCC/C1=C\c1ccccc1; experiment: purified protein; assay type: biochemical, Bacillus subtilis; conditions: 1.0 mM NADPH, 10 μM enzyme, PBS 100 mM, pH 7.5, 30 °C
purified protein [2] = substrate: O=C1CCC/C1=C\c1ccccc1; experiment: purified protein; assay type: biochemical, Bacillus subtilis; conditions: 1.0 mM NADPH, 10 μM enzyme, PBS 100 mM, pH 7.5, 30 °C

Row | Protein | Km (purified protein [1]) | kcat (purified protein [1]) | kcat/Km (purified protein [1]) | Km (purified protein [2]) | kcat (purified protein [2]) | kcat/Km (purified protein [2])
1 | B1 | 7.98 ± 0.18 mM | 0.19 ± 0.009 s⁻¹ | 20 M⁻¹ s⁻¹ | 8.35 ± 0.2 mM | 0.23 ± 0.005 s⁻¹ | 30 M⁻¹ s⁻¹
2 | B2 | 2.98 ± 0.1 mM | 1.12 ± 0.02 s⁻¹ | 380 M⁻¹ s⁻¹ | 2.65 ± 0.02 mM | 0.89 ± 0.023 s⁻¹ | 340 M⁻¹ s⁻¹
3 | B3 | 1.1 ± 0.03 mM | 1.86 ± 0.05 s⁻¹ | 1690 M⁻¹ s⁻¹ | 1.21 ± 0.01 mM | 1.59 ± 0.03 s⁻¹ | 1310 M⁻¹ s⁻¹
4 | B4 | – | – | – | 2.21 ± 0.02 mM | 0.49 ± 0.012 s⁻¹ | 220 M⁻¹ s⁻¹
5 | B5 | 3.48 ± 0.11 mM | 0.43 ± 0.01 s⁻¹ | 120 M⁻¹ s⁻¹ | 3.56 ± 0.08 mM | 0.39 ± 0.012 s⁻¹ | 110 M⁻¹ s⁻¹
6 | B6 | – | – | – | 1.69 ± 0.01 mM | 0.56 ± 0.009 s⁻¹ | 330 M⁻¹ s⁻¹
7 | B7 | 4.56 ± 0.12 mM | 0.87 ± 0.012 s⁻¹ | 190 M⁻¹ s⁻¹ | 4.25 ± 0.09 mM | 0.65 ± 0.015 s⁻¹ | 150 M⁻¹ s⁻¹
